In patent US20150202287A1, “COMBINATION THERAPIES COMPRISING ANTI-ERBB3 AGENTS” (Merrimack Pharmaceuticals, Inc., priority 2012, published 2015):

How the values were obtained:
[1] = test system: phospho-ErbB3 (pErbB3); assay type: cell-based; conditions: up to 24 hours incubation
Method: (§1) Cell lysates are probed for phospho-ErbB3 (pErbB3), and phospho-AKT (pAKT) by ELISA as described previously (Schoeberl et al, 2009) Inhibitor IC50 values are calculated by fitting dose-response data to a 4-parameter sigmoidal curve (GraphPad Prism®, GraphPad Software, Inc., La Jolla, Calif.).
Model-generated dose-response curves overlay the experimental data (FIG. 7a). […] Untreated and heregulin-stimulated cells were probed for pErbB3 and pAKT and the IC50 was calculated (FIG. 7b).
(§2) CRL-1504®), cells were incubated with serial dilutions of either inhibitor for 15 minutes, 1 hour, 4 hours, and 24 hours followed by stimulation with 5 nM heregulin for 10 min Amounts of pAKT and pErbB3 were measured by ELISA essentially as described.

[2] = test system: phospho-AKT (pAKT); assay: Cell signaling assay, pAKT ELISA, ZR75-30; assay type: cell-based; conditions: ZR75-30 cells, stimulation with 5 nM heregulin for 10 min; read-out: IC50, reduction of pAKT levels
Method: as §1, §2

[3] = test system: phospho-ErbB3 (pErbB3); assay: Cell signaling assay, pErbB3 ELISA, ZR75-30; assay type: cell-based; conditions: ZR75-30 cells, stimulation with 5 nM heregulin for 10 min; read-out: IC50, reduction of pErbB3 levels
Method: as §1, §2

[4] = test system: ErbB2 and ErbB3; assay: Affinity of MM-111 antigen-binding sites
[5] = test system: NCI-N87 cells; assay: T-DM1 and heregulin dose matrix cell viability, NCI-N87; assay type: cell-based; conditions: for cell viability: T-DM1 0 μg/ml, with MM-111 1 μM, 72 h
Method: Cells were allowed to adhere 16-20 hours at +37° C., 5% CO2. Cells were stimulated for 4 hours by adding 5 μl of culture media containing recombinant human NRG-1-β1 EGF domain (HRG1) bringing the final HRG1 stimulation concentration to 0, 0.313, 0.625, 1.25, 2.5, 5 or 10 nM. […] All conditions were assayed in biological quadruplicates. Cells were incubated for 72 h at +37° C., 5% CO2. Cell viability was determined by CellTiter-Glo® Luminescent Cell Viability Assay by adding 20 μl of reconstituted CellTiter-Glo reagent per well, incubating plated for 10 minutes at RT in an orbital shaker and reading the luminescence signal using Biotek™ Synergy H1 Hybrid Reader.

Substance	inhibition of heregulin-induced ErbB3 activation relative to lapatinib [1]	IC50 [2]	IC50 [3]	affinity of ErbB2 antigen-binding site relative to ErbB3 antigen-binding site [4]	cell viability ([5]; HRG 0 nM)	cell viability ([5]; HRG 0.313 nM)	cell viability ([5]; HRG 0.625 nM)	cell viability ([5]; HRG 1.25 nM)	cell viability ([5]; HRG 2.5 nM)	cell viability ([5]; HRG 5 nM)	cell viability ([5]; HRG 10 nM)	activity of T-DM1 with exogenous HRG ([5]; HRG 0.313-10 nM)
MM-111	superior to lapatinib by greater than an order of magnitude	4 nM	5 nM	about 30 times	100 % of control	101.4158 % of control	105.024 % of control	110.2781 % of control	118.0867 % of control	126.5145 % of control	146.1417 % of control	–
ado-trastuzumab emtansine [T-DM1, reference compound]	–	–	–	–	–	–	–	–	–	–	–	exogenous HRG decreases the activity of T-DM1
